Measured values: the supplement of paper PMC10567573

B1: KRT13 (parent)
chain: TPGIDLTRVLAEMREQYEAMAERN

Variants of: B1
Assay: protein stability index of a GFP-peptide fusion (GPS, HEK-293T) (PSI 1-6); higher = more stable
Details: c terminus: a fixed tail appended
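Also: lentivirally expressed fusions sorted by FACS into six bins by GFP to DsRed ratio, PSI derived from sequencing read proportions per bin multiplied by bin number.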

Variant | protein stability index
TPGIDLTRMLAEMREQYEAMAERN [V9M] | 3.94
TPGIDLTRDLAEMREQYEAMAERN [V9D] | 4.54
TPGIDLTRNLAEMREQYEAMAERN [V9N] | 4.86
TPGIDLTRSLAEMREQYEAMAERN [V9S] | 3.41
TPGIDLTRRLAEMREQYEAMAERN [V9R] | 4.56
TPGIDLTRELAEMREQYEAMAERN [V9E] | 4.71
TPGIDLTRILAEMREQYEAMAERN [V9I] | 3.06
TPGIDLTRTLAEMREQYEAMAERN [V9T] | 3.85
TPGIDLTRCLAEMREQYEAMAERN [V9C] | 4.47
TPGIDLTRKLAEMREQYEAMAERN [V9K] | 4.34
TPGIDLTRLLAEMREQYEAMAERN [V9L] | 2.25
TPGIDLTRYLAEMREQYEAMAERN [V9Y] | 3.01
TPVIDLTRVLAEMREQYEAMAERN [G3V] | 2.11
TPWIDLTRVLAEMREQYEAMAERN [G3W] | 3.37
TPYIDLTRVLAEMREQYEAMAERN [G3Y] | 2.34
TPNIDLTRVLAEMREQYEAMAERN [G3N] | 3.12
TPDIDLTRVLAEMREQYEAMAERN [G3D] | 3.1
TPRIDLTRVLAEMREQYEAMAERN [G3R] | 3.39
TPLIDLTRVLAEMREQYEAMAERN [G3L] | 2.81
TPIIDLTRVLAEMREQYEAMAERN [G3I] | 3.38
TPQIDLTRVLAEMREQYEAMAERN [G3Q] | 3.23
TPEIDLTRVLAEMREQYEAMAERN [G3E] | 2.78
TPTIDLTRVLAEMREQYEAMAERN [G3T] | 2.96
TPMIDLTRVLAEMREQYEAMAERN [G3M] | 2.38

Variant | protein stability index
TPHIDLTRVLAEMREQYEAMAERN [G3H] | 3.35
TPFIDLTRVLAEMREQYEAMAERN [G3F] | 2.28
TPKIDLTRVLAEMREQYEAMAERN [G3K] | 1.99
TPPIDLTRVLAEMREQYEAMAERN [G3P] | 2.67
TPCIDLTRVLAEMREQYEAMAERN [G3C] | 2.63
TPAIDLTRVLAEMREQYEAMAERN [G3A] | 3.35
TPGIDLTLVLAEMREQYEAMAERN [R8L] | 2.64
TPGIDLTQVLAEMREQYEAMAERN [R8Q] | 4.15
TPGIDLTIVLAEMREQYEAMAERN [R8I] | 3.08
TPGIDLTDVLAEMREQYEAMAERN [R8D] | 2.73
TPGIDLTHVLAEMREQYEAMAERN [R8H] | 4.05
TPGIDLTNVLAEMREQYEAMAERN [R8N] | 4.11
TPGIDLTYVLAEMREQYEAMAERN [R8Y] | 3.39
TPGIDLTKVLAEMREQYEAMAERN [R8K] | 4.69
TPGIDLTWVLAEMREQYEAMAERN [R8W] | 3.25
TPGIDLTFVLAEMREQYEAMAERN [R8F] | 3.13
TPGIDLTAVLAEMREQYEAMAERN [R8A] | 4.26
TPGIDLTMVLAEMREQYEAMAERN [R8M] | 4.01
TPGIDLTPVLAEMREQYEAMAERN [R8P] | 3.61
TPGIDLTRVCAEMREQYEAMAERN [L10C] | 4.22
TPGIDLTRVGAEMREQYEAMAERN [L10G] | 5.23
TPGIDLTRVPAEMREQYEAMAERN [L10P] | 5.31
TPGIDLTRVNAEMREQYEAMAERN [L10N] | 5.71
TPGIDLTRVHAEMREQYEAMAERN [L10H] | 4.95

Variant | protein stability index
TPGIDLTRVKAEMREQYEAMAERN [L10K] | 4.14
TPGIDLTRVRAEMREQYEAMAERN [L10R] | 4.12
TPGIDLTRVQAEMREQYEAMAERN [L10Q] | 5.15
TPGIDLTRVYAEMREQYEAMAERN [L10Y] | 4.4
TPGIDLTRVFAEMREQYEAMAERN [L10F] | 4.55
TPGIDLTRVMAEMREQYEAMAERN [L10M] | 4.48
TPGIDLTRVTAEMREQYEAMAERN [L10T] | 5.01
TPGIDLTRVSAEMREQYEAMAERN [L10S] | 4.87
TPGIDLTRVEAEMREQYEAMAERN [L10E] | 5.2
TPGIDLTRVDAEMREQYEAMAERN [L10D] | 5.17
TPGIDLTRVVAEMREQYEAMAERN [L10V] | 4.8
TPGIDLTRVIAEMREQYEAMAERN [L10I] | 3.25
TPGIDLTRVWAEMREQYEAMAERN [L10W] | 4.09
TAGIDLTRVLAEMREQYEAMAERN [P2A] | 4.17
TNGIDLTRVLAEMREQYEAMAERN [P2N] | 4.05
THGIDLTRVLAEMREQYEAMAERN [P2H] | 4.41
TWGIDLTRVLAEMREQYEAMAERN [P2W] | 3.75
TLGIDLTRVLAEMREQYEAMAERN [P2L] | 2.86
TYGIDLTRVLAEMREQYEAMAERN [P2Y] | 3.69
TFGIDLTRVLAEMREQYEAMAERN [P2F] | 2.79
TTGIDLTRVLAEMREQYEAMAERN [P2T] | 3.81
TMGIDLTRVLAEMREQYEAMAERN [P2M] | 2.97
TKGIDLTRVLAEMREQYEAMAERN [P2K] | 3.79
TVGIDLTRVLAEMREQYEAMAERN [P2V] | 2.6

Variant | protein stability index
TSGIDLTRVLAEMREQYEAMAERN [P2S] | 3.9
TDGIDLTRVLAEMREQYEAMAERN [P2D] | 3.69
TIGIDLTRVLAEMREQYEAMAERN [P2I] | 2.54
TEGIDLTRVLAEMREQYEAMAERN [P2E] | 3.16
TCGIDLTRVLAEMREQYEAMAERN [P2C] | 3.36
TPGIDLTRVLACMREQYEAMAERN [E12C] | 2.66
TPGIDLTRVLARMREQYEAMAERN [E12R] | 1.05
TPGIDLTRVLAIMREQYEAMAERN [E12I] | 2.72
TPGIDLTRVLAQMREQYEAMAERN [E12Q] | 4.76
TPGIDLTRVLAFMREQYEAMAERN [E12F] | 3.42
TPGIDLTRVLAPMREQYEAMAERN [E12P] | 4.36
TPGIDLTRVLAKMREQYEAMAERN [E12K] | 2.23
TPGIDLTRVLAMMREQYEAMAERN [E12M] | 2.96
TPGIDLTRVLAAMREQYEAMAERN [E12A] | 3.15
TPGIDLTRVLATMREQYEAMAERN [E12T] | 4.09
TPGIDLTRVLANMREQYEAMAERN [E12N] | 3.87
TPGIDLTRVLAWMREQYEAMAERN [E12W] | 3.06
TPGIDLTRVLAYMREQYEAMAERN [E12Y] | 3.37
TPGIDLTRVLAHMREQYEAMAERN [E12H] | 3.08
WPGIDLTRVLAEMREQYEAMAERN [T1W] | 3.5
YPGIDLTRVLAEMREQYEAMAERN [T1Y] | 4.34
VPGIDLTRVLAEMREQYEAMAERN [T1V] | 2.67
